In PMC5240932, “The Nuclear Receptor HIZR-1 Uses Zinc as a Ligand to Mediate Homeostasis in Response to High Zinc”:

T1: HIZR-1 WT (Caenorhabditis elegans, UniProt G5ED47 1-412)
T1 sequence: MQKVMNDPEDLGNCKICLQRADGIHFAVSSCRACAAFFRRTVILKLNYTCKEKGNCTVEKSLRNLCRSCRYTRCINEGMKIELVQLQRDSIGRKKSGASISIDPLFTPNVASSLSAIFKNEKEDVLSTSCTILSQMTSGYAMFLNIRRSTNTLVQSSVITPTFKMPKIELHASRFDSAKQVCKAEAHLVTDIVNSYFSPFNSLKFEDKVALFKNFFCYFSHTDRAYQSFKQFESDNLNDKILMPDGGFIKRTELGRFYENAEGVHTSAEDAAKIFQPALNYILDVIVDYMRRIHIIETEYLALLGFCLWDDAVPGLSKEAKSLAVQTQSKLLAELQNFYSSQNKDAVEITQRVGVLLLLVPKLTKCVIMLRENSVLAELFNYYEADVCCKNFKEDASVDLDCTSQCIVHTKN

T2: HIZR-1 G23E (Caenorhabditis elegans, UniProt G5ED47 1-412, G23E)
T2 sequence: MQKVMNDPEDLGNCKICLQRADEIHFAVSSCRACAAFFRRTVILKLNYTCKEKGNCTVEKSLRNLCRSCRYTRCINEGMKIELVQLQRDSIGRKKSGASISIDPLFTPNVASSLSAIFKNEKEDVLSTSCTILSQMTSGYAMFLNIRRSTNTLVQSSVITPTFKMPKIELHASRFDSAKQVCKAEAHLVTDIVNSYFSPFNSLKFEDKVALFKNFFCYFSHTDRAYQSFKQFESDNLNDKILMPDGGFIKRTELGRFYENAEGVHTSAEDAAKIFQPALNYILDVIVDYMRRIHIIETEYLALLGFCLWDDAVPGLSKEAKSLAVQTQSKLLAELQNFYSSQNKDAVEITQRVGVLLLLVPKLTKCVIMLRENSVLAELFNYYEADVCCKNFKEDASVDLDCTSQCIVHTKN

T3: HIZR-1 R63C (Caenorhabditis elegans, UniProt G5ED47 1-412, R63C)
T3 sequence: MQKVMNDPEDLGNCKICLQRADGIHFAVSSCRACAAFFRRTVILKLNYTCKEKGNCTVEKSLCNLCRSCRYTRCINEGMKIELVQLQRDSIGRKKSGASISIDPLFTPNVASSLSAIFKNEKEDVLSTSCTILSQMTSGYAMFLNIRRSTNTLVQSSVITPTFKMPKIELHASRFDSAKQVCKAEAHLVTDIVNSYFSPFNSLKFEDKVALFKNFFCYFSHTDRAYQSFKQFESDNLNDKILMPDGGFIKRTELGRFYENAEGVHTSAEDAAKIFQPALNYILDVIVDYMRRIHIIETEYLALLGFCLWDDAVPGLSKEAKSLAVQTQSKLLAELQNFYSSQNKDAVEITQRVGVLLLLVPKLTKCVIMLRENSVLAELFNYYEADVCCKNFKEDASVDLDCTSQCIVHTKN

T4: HIZR-1 S30L (Caenorhabditis elegans, UniProt G5ED47 1-412, S30L)
T4 sequence: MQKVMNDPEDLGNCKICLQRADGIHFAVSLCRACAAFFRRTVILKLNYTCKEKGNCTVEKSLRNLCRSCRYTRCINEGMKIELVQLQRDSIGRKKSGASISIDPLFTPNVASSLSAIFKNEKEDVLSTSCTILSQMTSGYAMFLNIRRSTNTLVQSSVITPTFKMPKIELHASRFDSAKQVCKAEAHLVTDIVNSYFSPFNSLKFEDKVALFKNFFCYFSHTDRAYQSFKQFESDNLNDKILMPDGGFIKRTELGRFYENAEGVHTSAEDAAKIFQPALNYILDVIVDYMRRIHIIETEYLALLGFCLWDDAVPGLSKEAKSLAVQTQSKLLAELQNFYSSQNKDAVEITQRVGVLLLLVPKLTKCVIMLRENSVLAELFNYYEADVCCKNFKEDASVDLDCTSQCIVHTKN


Experiments:
[1] = biological target: T1, HIZR-1 WT; test: competition; EMSA; 5-5000 nM unlabeled mutant vs labeled HZA; does not compete; Licor Odyssey EMSA Buffer Kit per manufacturer; buffer composition, salt, pH and temperature not stated; conditions: protein: recombinant; tags: N-terminal 6xHis (pTrcHisA)
[2] = biological target: T2, HIZR-1 G23E; test: EMSA; legend: not bound; text: dramatically reduced; Licor Odyssey EMSA Buffer Kit per manufacturer; buffer composition, salt, pH and temperature not stated; conditions: protein: recombinant; tags: N-terminal 6xHis (pTrcHisA); label: IRDye700
[3] = biological target: T3, HIZR-1 R63C; test: as above; conditions: protein: recombinant; tags: N-terminal 6xHis (pTrcHisA); label: IRDye700
[4] = biological target: T1, HIZR-1 WT; test: EMSA; apparent Kd; constant protein, variable labeled DNA; Licor Odyssey EMSA Buffer Kit per manufacturer; buffer composition, salt, pH and temperature not stated; conditions: protein: recombinant; tags: N-terminal 6xHis (pTrcHisA); label: IRDye700
[5] = biological target: T4, HIZR-1 S30L; test: EMSA; legend: not bound; text: dramatically reduced; faint fast band of unknown significance; Licor Odyssey EMSA Buffer Kit per manufacturer; buffer composition, salt, pH and temperature not stated; conditions: protein: recombinant; tags: N-terminal 6xHis (pTrcHisA); label: IRDye700

Binder | binding result [1] | binding result [2] | binding result [3] | Kd [4] | binding result [5]
Mutant HZA, unlabeled competitor (dsDNA) DNA 1: TGTGTTATCAGAACATACAACATTAATGTCTCGAG DNA 2: CTCGAGACATTAATGTTGTATGTTCTGATAACACA | no binding |  |  |  | 
HZA WT, labeled (cdf-2 promoter) (dsDNA) DNA 1: TGTGTTATCAATCATAAACTAGAACATGTCTCGAG DNA 2: CTCGAGACATGTTCTAGTTTATGATTGATAACACA |  | no binding | no binding | 20.4 ± 6.8 nM | no binding
